Source: patent publication US8278415B2
Each block holds one binder with its values, some of them ahead of it. Positions of bridges follow the written chain, without caps; N, C: chain ends. No end group written: not given here. PEG = not defined here

Columns and labels:
[1] = molecular target: EGFR on the surface of tumor cells (human) (UniProt P00533); assay: flow cytometry on A431 cells preincubated with 2 ug EGF, 2 uM bio-P190: avidin complex, 4° C.
[2] = molecular target: EGFR on the surface of tumor cells (human) (UniProt P00533)

staining over background [1]: 20 fold
Binder: DPCTWEVWGRECLQ-{PEG-biotin} (disulfide 3-12 (inferred); reading uncertain) [Biotinylated-PEGylated P190]

IC50 D4 [2]: 120 µg/mL | IC50 D6 [2]: 35 µg/mL
B1: P190-DOXIL (peptide)
peptide: DPCTWEVWGRECLQ
modifications: disulfide 3-12 (inferred); not fully specified (N-terminus); also: inserted into DOXIL liposomes (doxorubicin)
